Data taken from PMC11229321 (Nucleic Acids Research, 2024).
Blank lines part the entries; values can stand above or below the molecule they belong to.

Experiments:
YejK(Δ134–147) (E. coli) = YejK(Δ134–147) (E. coli) (UniProt P33920); experiment: SEC
YejK = target: T1, YejK (Escherichia coli, UniProt P33920 1-335); experiment: fluorescence polarization
T1 sequence: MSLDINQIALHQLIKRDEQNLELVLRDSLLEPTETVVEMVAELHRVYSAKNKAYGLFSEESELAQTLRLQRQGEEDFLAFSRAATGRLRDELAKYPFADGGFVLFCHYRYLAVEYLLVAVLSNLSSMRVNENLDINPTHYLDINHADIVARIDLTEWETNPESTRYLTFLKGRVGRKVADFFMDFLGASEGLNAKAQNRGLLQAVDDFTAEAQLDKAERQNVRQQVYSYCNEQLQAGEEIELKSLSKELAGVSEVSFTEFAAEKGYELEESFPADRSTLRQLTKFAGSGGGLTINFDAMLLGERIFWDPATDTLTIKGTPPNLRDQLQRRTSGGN

YejK(R276A-R280A-K284A) = target: T2, YejK(R276A-R280A-K284A) (Escherichia coli, UniProt P33920 1-335, R276A;R280A;K284A); experiment: fluorescence polarization
T2 sequence: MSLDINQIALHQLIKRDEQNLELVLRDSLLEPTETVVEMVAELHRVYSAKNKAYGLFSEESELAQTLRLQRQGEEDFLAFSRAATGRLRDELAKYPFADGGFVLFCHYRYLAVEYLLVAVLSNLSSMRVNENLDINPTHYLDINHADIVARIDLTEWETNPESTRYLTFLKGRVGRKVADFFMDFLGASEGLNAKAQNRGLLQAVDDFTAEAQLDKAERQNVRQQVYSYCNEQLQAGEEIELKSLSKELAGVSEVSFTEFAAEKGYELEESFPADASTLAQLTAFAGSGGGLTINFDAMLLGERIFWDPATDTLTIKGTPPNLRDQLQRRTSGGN

[1] = target: T3, YejK C-trunc, YejK(1-290) (Escherichia coli, UniProt P33920 1-290, del291-335); experiment: fluorescence polarization
T3 sequence: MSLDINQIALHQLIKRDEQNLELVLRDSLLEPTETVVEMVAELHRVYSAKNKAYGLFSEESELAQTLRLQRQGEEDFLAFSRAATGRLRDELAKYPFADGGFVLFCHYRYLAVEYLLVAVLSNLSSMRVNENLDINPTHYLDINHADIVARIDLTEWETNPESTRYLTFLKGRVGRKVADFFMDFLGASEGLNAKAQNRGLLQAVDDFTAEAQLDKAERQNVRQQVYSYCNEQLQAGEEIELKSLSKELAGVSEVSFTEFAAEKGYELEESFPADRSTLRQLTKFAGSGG

SEC = target: the molecule itself; experiment: SEC
cross-linking = target: the molecule itself; experiment: cross-linking

stoichiometry N (YejK(Δ134–147) (E. coli)): 2
Molecule: YejK(Δ134–147) (from UniProt P33920 1-335) (natural protein)

B1: AT-rich 20-mer (dsDNA)
DNA 1: ATTATTAATTAATTAATAAT
DNA 2: ATTATTAATTAATTAATAAT
Kd (YejK): 6.8 ± 0.5 µM
Kd (YejK(R276A-R280A-K284A)): 40 ± 5.6 µM
binding result [1]: no binding

B2: E. coli YejK protein (WT) (natural protein, UniProt P33920 1-335, looked up)
chain: MSLDINQIALHQLIKRDEQNLELVLRDSLLEPTETVVEMVAELHRVYSAKNKAYGLFSEESELAQTLRLQRQGEEDFLAFSRAATGRLRDELAKYPFADGGFVLFCHYRYLAVEYLLVAVLSNLSSMRVNENLDINPTHYLDINHADIVARIDLTEWETNPESTRYLTFLKGRVGRKVADFFMDFLGASEGLNAKAQNRGLLQAVDDFTAEAQLDKAERQNVRQQVYSYCNEQLQAGEEIELKSLSKELAGVSEVSFTEFAAEKGYELEESFPADRSTLRQLTKFAGSGGGLTINFDAMLLGERIFWDPATDTLTIKGTPPNLRDQLQRRTSGGN
stoichiometry N (SEC): 2

B3: YejK(R276A-R280A-K284A) (natural protein, E. coli, UniProt P33920 1-335, looked up)
chain: MSLDINQIALHQLIKRDEQNLELVLRDSLLEPTETVVEMVAELHRVYSAKNKAYGLFSEESELAQTLRLQRQGEEDFLAFSRAATGRLRDELAKYPFADGGFVLFCHYRYLAVEYLLVAVLSNLSSMRVNENLDINPTHYLDINHADIVARIDLTEWETNPESTRYLTFLKGRVGRKVADFFMDFLGASEGLNAKAQNRGLLQAVDDFTAEAQLDKAERQNVRQQVYSYCNEQLQAGEEIELKSLSKELAGVSEVSFTEFAAEKGYELEESFPADASTLAQLTAFAGSGGGLTINFDAMLLGERIFWDPATDTLTIKGTPPNLRDQLQRRTSGGN
stoichiometry N (cross-linking): 2

B4: YejK(R173A-R176A-K177A) (natural protein, E. coli, UniProt P33920 1-335, looked up)
chain: MSLDINQIALHQLIKRDEQNLELVLRDSLLEPTETVVEMVAELHRVYSAKNKAYGLFSEESELAQTLRLQRQGEEDFLAFSRAATGRLRDELAKYPFADGGFVLFCHYRYLAVEYLLVAVLSNLSSMRVNENLDINPTHYLDINHADIVARIDLTEWETNPESTRYLTFLKGAVGAAVADFFMDFLGASEGLNAKAQNRGLLQAVDDFTAEAQLDKAERQNVRQQVYSYCNEQLQAGEEIELKSLSKELAGVSEVSFTEFAAEKGYELEESFPADRSTLRQLTKFAGSGGGLTINFDAMLLGERIFWDPATDTLTIKGTPPNLRDQLQRRTSGGN
stoichiometry N (cross-linking): 2
